Data published in patent US20230058489A1, “COMBINATION COMPRISING A TIM-3 INHIBITOR AND A HYPOMETHYLATING AGENT FOR USE IN TREATING MYELODYSPLASTIC SYNDROME OR CHRONIC MYELOMONOCYTIC LEUKEMIA” (Novartis AG, priority 2020, published 2023).

Target: T1, interaction between TIM-3 and Galectin-9 (Homo sapiens, UniProt Q8TDQ0)
T1 construct: purchased R&D Systems
Assay: MesoScale competition assay, Gal9-SULFOTag binding to coated TIM-3 fusion protein
Settings: serial dilutions, Galectin-9 SULFOTag 100 nM, FIG. 1
Description: TIM-3 fusion protein (R&D Systems) was coated on a standard MesoScale 96 well plate (Meso Scale Discovery) at 2 μg/ml in PBS (Phosphate Buffered Saline) and incubated for six hours at room temperature. The plate was washed three times with PBST (PBS buffer containing 0.05% Tween-20) and blocked with PBS containing 5% Probumin (Millipore) overnight at 4° C. […] The plate was then washed three times with PBST, and Galectin-9 labeled with MSD SULFOTag (Meso Scale Discovery) as per manufacturer's instructions, diluted in Assay Diluent to 100 nM, was added to the plate for one hour at room temperature on an orbital shaker. The plate was again washed three times with PBST, and Read Buffer T (1×) was added to the plate. The plate was read on MA600 Imager, and competition was assessed as a measure of the ability of the antibody to block Gal9-SULFOTag signal to TIM-3 receptor.

B1: Galectin-9 protein: control recombinant human Galectin-9 protein, unlabeled (protein)
chain: AFSGSQAPYLSPAVPFSGTIQGGLQDGLQITVNGTVLSSSGTRFAVNFQTGFSGNDIAFHFNPRFEDGGYVVCNTRQNGSWGPEERKTHMPFQKGMPFDLCFLVQSSDFKVMVNGILFVQYFHRVPFHRVDTISVNGSVQLSYISFQPPGVWPANPAPITQTVIHTVQSAPGQMFSTPAIPPMMYPHPAYPMPFITTILGGLYPSKSILLSGTVLPSAQRFHINLCSGNHIAFHLNPRFDENAVVRNTQIDNSWGSEERSLPRKMPFVRGQSFSVWILCEAHCLKVAVDGQHLFEYYHRLRNLPTINRLEVGGDIQLTHVQT
  ability to block Gal9-SULFOTag signal to TIM-3 receptor (competition): did not
